Test results: publication doi:10.1101/2025.08.27.672337, “Cyclin-dependent kinase-like 5 (CDKL5) binds to talin and is anchored at the postsynaptic density via direct interaction with PDZ domains” (bioRxiv, 2025)
Several values for one entry are separate records, joined by “and”; a condition that tells them apart may be missing. Equal values may be shown once. One block for each binder: values may come before it. Where no end group is shown, it is not given here. maleimide‑fluorescein = Maleimide-fluorescein dye, coupled to a cysteine thiol

Columns and labels:
Settings in all cases: both partners purified
talin1 R7R8 [1] = target: T1, talin1 R7R8 (mouse, UniProt P26039 1357-1659); test: NMR titration; 15N-HSQC of 15N-labelled protein at 150 µM with peptide added (1:0.5 to 1:5 molar ratios); 12 mM NaH2PO4, 6 mM Na2HPO4, pH 6.5, 50 mM NaCl, 2 mM DTT, 5% D2O, 298K
T1 construct: talin1 rod domains R7R8, mouse, UniProt P26039, residues 1357-1659; Expressed from pET151; His-tag removed with AcTEV protease; 15N-labelled for NMR; also called talin R7R8
T1 sequence (P26039 1357-1659): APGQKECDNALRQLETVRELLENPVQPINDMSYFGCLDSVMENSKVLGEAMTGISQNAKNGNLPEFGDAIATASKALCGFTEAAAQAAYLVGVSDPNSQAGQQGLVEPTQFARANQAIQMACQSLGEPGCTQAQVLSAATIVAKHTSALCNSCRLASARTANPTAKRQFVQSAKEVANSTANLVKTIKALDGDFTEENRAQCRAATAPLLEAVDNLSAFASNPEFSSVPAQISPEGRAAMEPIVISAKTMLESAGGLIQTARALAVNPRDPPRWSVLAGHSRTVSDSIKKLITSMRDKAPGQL

talin1 R8 = target: T2, talin1 R8 (mouse, UniProt P26039 1461-1580); test: as above
T2 construct: talin1 rod domain R8, mouse, UniProt P26039, residues 1461-1580; Expressed from pET151; His-tag removed with AcTEV protease; 15N-labelled for NMR; also called talin R8; R8 rod domain of talin
T2 sequence (P26039 1461-1580): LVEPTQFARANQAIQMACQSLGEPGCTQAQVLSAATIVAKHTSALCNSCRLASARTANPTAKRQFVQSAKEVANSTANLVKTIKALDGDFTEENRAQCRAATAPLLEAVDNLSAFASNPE

talin1 R7R8 [2] = target: T1, talin1 R7R8; test: fluorescence polarisation; dye-labelled peptide against a twofold serial dilution of the protein in PBS (10 mM Na2HPO4, 1.8 mM KH2PO4, pH 7.4, 137 mM NaCl, 2.7 mM KCl), 25°C; one-site total binding fit; triplicate
SHANK2 PDZ domain [3] = target: T3, SHANK2 PDZ domain (mouse, UniProt Q80Z38 247-340); test: NMR titration; 15N-HSQC of 15N-labelled protein at 150 µM with peptide added (1:0.5 to 1:5 molar ratios); 12 mM NaH2PO4, 6 mM Na2HPO4, pH 6.5, 50 mM NaCl, 2 mM DTT, 5% D2O, 298K
T3 construct: SHANK2 PDZ domain, mouse, UniProt Q80Z38, residues 247-340; Expressed from pET151; His-tag removed with AcTEV protease; 15N-labelled for NMR
T3 sequence (looked up): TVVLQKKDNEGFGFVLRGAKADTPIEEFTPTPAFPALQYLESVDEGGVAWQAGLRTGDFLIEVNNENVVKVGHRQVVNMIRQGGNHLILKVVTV

PSD-95 PDZ2 domain [4] = target: T4, PSD-95 PDZ2 domain (human, UniProt P78352 155-249); test: as above
T4 construct: PSD-95 (postsynaptic density protein 95) PDZ2, human, UniProt P78352, residues 155-249; codon optimised synthetic gene; Expressed from pET151; His-tag removed with AcTEV protease; 15N-labelled for NMR; also called PDZ2 of PSD-95
T4 sequence (P78352 155-249): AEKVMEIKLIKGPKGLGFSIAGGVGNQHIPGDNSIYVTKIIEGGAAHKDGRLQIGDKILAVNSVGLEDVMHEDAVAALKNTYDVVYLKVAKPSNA

SHANK1 PDZ domain [5] = target: T5, SHANK1 PDZ domain (mouse, UniProt D3YZU1 654-762); test: as above
T5 construct: SHANK1 PDZ domain, mouse, UniProt D3YZU1, residues 654-762; Expressed from pET151; His-tag removed with AcTEV protease; 15N-labelled for NMR
T5 sequence (looked up): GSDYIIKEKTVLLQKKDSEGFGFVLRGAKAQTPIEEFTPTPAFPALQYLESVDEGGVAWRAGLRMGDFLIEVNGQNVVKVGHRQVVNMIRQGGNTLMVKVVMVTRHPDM

PSD-95 PDZ3 domain [6] = target: T6, PSD-95 PDZ3 domain (human, UniProt P78352 302-402); test: as above
T6 construct: PSD-95 (postsynaptic density protein 95) PDZ3, human, UniProt P78352, residues 302-402; codon optimised synthetic gene; Expressed from pET151; His-tag removed with AcTEV protease; 15N-labelled for NMR; also called PDZ3 of PSD-95
T6 sequence (P78352 302-402): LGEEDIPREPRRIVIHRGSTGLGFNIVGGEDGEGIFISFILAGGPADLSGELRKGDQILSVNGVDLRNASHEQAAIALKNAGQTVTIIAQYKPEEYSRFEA

SHANK2 PDZ domain [7] = target: T3, SHANK2 PDZ domain; test: fluorescence polarisation; dye-labelled peptide against a twofold serial dilution of the protein in PBS (10 mM Na2HPO4, 1.8 mM KH2PO4, pH 7.4, 137 mM NaCl, 2.7 mM KCl), 25°C; one-site total binding fit; triplicate
PSD-95 PDZ2 domain [8] = target: T4, PSD-95 PDZ2 domain; test: as above
SHANK3 PDZ domain = target: T7, SHANK3 PDZ domain (mouse, UniProt Q4ACU6 570-664); test: as above
T7 construct: SHANK3 PDZ domain, mouse, UniProt Q4ACU6, residues 570-664; Expressed from pET151; His-tag removed with AcTEV protease
T7 sequence (looked up): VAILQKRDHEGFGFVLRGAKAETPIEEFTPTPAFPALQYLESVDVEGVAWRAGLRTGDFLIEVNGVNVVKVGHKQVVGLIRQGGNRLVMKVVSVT

SHANK1 PDZ domain [9] = target: T5, SHANK1 PDZ domain; test: as above
PSD-95 PDZ3 domain [10] = target: T6, PSD-95 PDZ3 domain; test: as above

B2: CDKL5^213-234 peptide, dye-labelled for FP (peptide)
peptide: C(maleimide‑fluorescein)GESEIDQLFTIQKVLGPLPSEQ
notes: single non-native N-terminal cysteine for coupling the dye; source: synthetic peptide (GLBiochem, Shanghai)
fold weaker affinity than CDK1^206-223 with talin1 R7R8 (talin1 R7R8 [2]): 2.5 fold

B4: CDKL5-1^941-960 peptide, fluorescein-labelled (peptide)
peptide: C(maleimide‑fluorescein)YNRTNRSRMPNLNDLKETAL
notes: single non-native N-terminal cysteine for coupling the dye; ends in -ETAL (957-960); also called CDKL5-1 C-terminal tail peptide; CDKL5 isoform 1 C-terminus; source: synthetic peptide (GLBiochem, Shanghai)
Kd (SHANK2 PDZ domain [7]): 5.2 µM
Kd (PSD-95 PDZ2 domain [8]): 31.3 µM
Kd (SHANK3 PDZ domain): 8.6 µM
Kd (SHANK1 PDZ domain [9]): 8.5 µM and 7.6 µM
Kd (PSD-95 PDZ3 domain [10]): 40.7 µM

Now from value to binder:

binding result (talin1 R7R8 [1]): binds
binding result (talin1 R8): binds
B1: CDKL5^213-234 peptide (NMR) (peptide)
peptide: CGESEIDQLFTIQKVLGPLPSEQ
notes: single non-native N-terminal cysteine with which the synthetic peptides were designed; source: synthetic peptide (GLBiochem, Shanghai)

binding result (SHANK2 PDZ domain [3]): binds
binding result (PSD-95 PDZ2 domain [4]): binds
binding result (SHANK1 PDZ domain [5]): binds
binding result (PSD-95 PDZ3 domain [6]): binds
B3: CDKL5-1^941-960 peptide, unlabelled (peptide)
peptide: CYNRTNRSRMPNLNDLKETAL
notes: single non-native N-terminal cysteine with which the synthetic peptides were designed; ends in -ETAL (957-960); Used unlabelled in NMR; also called CDKL5-1 C-terminal tail peptide; CDKL5-1 peptide; source: synthetic peptide (GLBiochem, Shanghai)
